The values that follow come from the RNAGym collection of RNA variant scans (doi:10.7554/elife.90254).

B1: OR4K15 (parent)
chain: GUUAACGGUCAUAGGCCAUGGAAACUAGGAGCACCAUUUCGCUGCCAGUGAAGAAAUGAACAAAGAAAAUCUGGGCCAGGCAGGCAUCAAAAGAAAUAGUCUUGCGCUCAACCAGAAAGUCUGUAAUCAUUUUAAGGGUA

In the data set the parent is B1. As to the kind of experiment: self-cleavage, relative activity (ratio to wild type); higher = more cleavage; in vitro, sequencing; the parent is a self-cleaving ribozyme.
With GUUAACGGUCAUAGGCCAUGGAAACUAGGAGCACCAUUUCGCUGCCAGUGAAGAAAUGAACAAAGAAAAUCUGGGCCAGGCAGGCAUCAAAAGAAAUAGUCUUGCGCUUAACCAGAAAGUCUGUAAGCAUUUUAAGGGUA [C109U U127G], the self-cleavage turned out to be 0.62.
GUUAACGGUCAUAGGCCAUGGAAACUAGGAGCACCAUUUCGCUGCCAGUGAAGAAAUGAACAAAGAAAAUCUGGGCCAGGCAGGCAUCAAAAGAAAUAGUCUUGCGCUCGACCAGAAGGUCUGUAAUCAUUUUAAGGGUA [A110G A118G]: the self-cleavage turned out to be 0.08.
For GUUAACGGUCAUAGGCCAUGGAAACUAGGAGCACCAUUUCGCUGCCAGUGAAGAAAUGAACAAAGAAAAUCUGGGCCAGGCAGGCAUCAAAAGAAAUAGUCUUGCGCUCCACCAGAGAGUCUGUAAUCAUUUUAAGGGUA [A110C A117G] the value was 0.64; for GUUAACGGUCAUAGGCCAUGGAAACUAGGAGCACCAUUUCGCUGCCAGUGAAGAAAUGAACAAAGAAAAUCUGGGCCAGGCAGGCAUCAAAAGAAAUAGUCUUGCGCUUAACCAGAAAGCCUGUAAUCAUUUUAAGGGUA [C109U U120C], 0.15; for GUUAACGGUCAUAGGCCAUGGAAACUAGGAGCACCAUUUCGCUGCCAGUGAAGAAAUGAACAAAGAAAAUCUGGGCCAGGCAGGCAUCAAAAGAAAUAGUCUUGCGCUCGACCAGAAAGUCUGUAAUCAUUUUAAGGUUA [A110G G138U], 0.13.
Take GUUAACGGUCAUAGGCCAUGGAAACUAGGAGCACCAUUUCGCUGCCAGUGAAGAAAUGAACAAAGAAAAUCUGGGCCAGGCAGGCAUCAAAAGAAAUAGUCUUGCGCUCCACCAGAAAGUCUGUAAUCAUUUUAUGGGUA [A110C A135U]: the self-cleavage stood at 0.06.
For GUUAACGGUCAUAGGCCAUGGAAACUAGGAGCACCAUUUCGCUGCCAGUGAAGAAAUGAACAAAGAAAAUCUGGGCCAGGCAGGCAUCAAAAGAAAUAGUCUUGCGCUCGACCAGAAAGUCUGCAAUCAUUUUAAGGGUA [A110G U124C], the self-cleavage is 0.14.
For GUUAACGGUCAUAGGCCAUGGAAACUAGGAGCACCAUUUCGCUGCCAGUGAAGAAAUGAACAAAGAAAAUCUGGGCCAGGCAGGCAUCAAAAGAAAUAGUCUUGCGCUCGACCAGAAAGUCUGAAAUCAUUUUAAGGGUA [A110G U124A] the value was 0.09; for GUUAACGGUCAUAGGCCAUGGAAACUAGGAGCACCAUUUCGCUGCCAGUGAAGAAAUGAACAAAGAAAAUCUGGGCCAGGCAGGCAUCAAAAGAAAUAGUCUUGCGCUCUACCAGAAUGUCUGUAAUCAUUUUAAGGGUA [A110U A118U], 0.75; for GUUAACGGUCAUAGGCCAUGGAAACUAGGAGCACCAUUUCGCUGCCAGUGAAGAAAUGAACAAAGAAAAUCUGGGCCAGGCAGGCAUCAAAAGAAAUAGUCUUGCGCUCUACCAGAAGGUCUGUAAUCAUUUUAAGGGUA [A110U A118G], 0.72.
As for GUUAACGGUCAUAGGCCAUGGAAACUAGGAGCACCAUUUCGCUGCCAGUGAAGAAAUGAACAAAGAAAAUCUGGGCCAGGCAGGCAUCAAAAGAAAUAGUCUUGCGCUCUACCAGAAAGUCUGUAAUCAUUUUAAGGGUG [A110U A140G], the self-cleavage turned out to be 2.04.
With GUUAACGGUCAUAGGCCAUGGAAACUAGGAGCACCAUUUCGCUGCCAGUGAAGAAAUGAACAAAGAAAAUCUGGGCCAGGCAGGCAUCAAAAGAAAUAGUCUUGCGCUCGGCCAGAAAGUCUGUAAUCAUUUUAAGGGUA [A110G A111G], the self-cleavage came out at 0.02.
For GUUAACGGUCAUAGGCCAUGGAAACUAGGAGCACCAUUUCGCUGCCAGUGAAGAAAUGAACAAAGAAAAUCUGGGCCAGGCAGGCAUCAAAAGAAAUAGUCUUGCGCUCCACCAGAAAGUCUGUAAUCAUAUUAAGGGUA [A110C U131A] the value was 0.17; for GUUAACGGUCAUAGGCCAUGGAAACUAGGAGCACCAUUUCGCUGCCAGUGAAGAAAUGAACAAAGAAAAUCUGGGCCAGGCAGGCAUCAAAAGAAAUAGUCUUGCGCUCCACCUGAAAGUCUGUAAUCAUUUUAAGGGUA [A110C A114U], 0.01.
Turning to GUUAACGGUCAUAGGCCAUGGAAACUAGGAGCACCAUUUCGCUGCCAGUGAAGAAAUGAACAAAGAAAAUCUGGGCCAGGCAGGCAUCAAAAGAAAUAGUCUUGCGCUCCACCAGAAAGUCUGUGAUCAUUUUAAGGGUA [A110C A125G], the self-cleavage turned out to be 0.11.
As for GUUAACGGUCAUAGGCCAUGGAAACUAGGAGCACCAUUUCGCUGCCAGUGAAGAAAUGAACAAAGAAAAUCUGGGCCAGGCAGGCAUCAAAAGAAAUAGUCUUGCGCUCGACCAGAUAGUCUGUAAUCAUUUUAAGGGUA [A110G A117U], the self-cleavage was 0.06.
In the case of GUUAACGGUCAUAGGCCAUGGAAACUAGGAGCACCAUUUCGCUGCCAGUGAAGAAAUGAACAAAGAAAAUCUGGGCCAGGCAGGCAUCAAAAGAAAUAGUCUUGCGCUCGACCAGAAAGUCUGUAAUCAUUUUAGGGGUA [A110G A135G], the self-cleavage came out at 0.12.
For GUUAACGGUCAUAGGCCAUGGAAACUAGGAGCACCAUUUCGCUGCCAGUGAAGAAAUGAACAAAGAAAAUCUGGGCCAGGCAGGCAUCAAAAGAAAUAGUCUUGCGCUUAACCAGAAAGUCUGUAGUCAUUUUAAGGGUA [C109U A126G] the value was 0.14; for GUUAACGGUCAUAGGCCAUGGAAACUAGGAGCACCAUUUCGCUGCCAGUGAAGAAAUGAACAAAGAAAAUCUGGGCCAGGCAGGCAUCAAAAGAAAUAGUCUUGCGCUCCACCAGAAAGUCGGUAAUCAUUUUAAGGGUA [A110C U122G], 0.56; for GUUAACGGUCAUAGGCCAUGGAAACUAGGAGCACCAUUUCGCUGCCAGUGAAGAAAUGAACAAAGAAAAUCUGGGCCAGGCAGGCAUCAAAAGAAAUAGUCUUGCGCUCGACCAGAAAGUCUGUAGUCAUUUUAAGGGUA [A110G A126G], 0.1.
For GUUAACGGUCAUAGGCCAUGGAAACUAGGAGCACCAUUUCGCUGCCAGUGAAGAAAUGAACAAAGAAAAUCUGGGCCAGGCAGGCAUCAAAAGAAAUAGUCUUGCGCUCGACCAGAAAGUCUGUAAUCAUUUUAAAGGUA [A110G G136A] the value was 0.09; for GUUAACGGUCAUAGGCCAUGGAAACUAGGAGCACCAUUUCGCUGCCAGUGAAGAAAUGAACAAAGAAAAUCUGGGCCAGGCAGGCAUCAAAAGAAAUAGUCUUGCGCUCUACCUGAAAGUCUGUAAUCAUUUUAAGGGUA [A110U A114U], 0.04; for GUUAACGGUCAUAGGCCAUGGAAACUAGGAGCACCAUUUCGCUGCCAGUGAAGAAAUGAACAAAGAAAAUCUGGGCCAGGCAGGCAUCAAAAGAAAUAGUCUUGCGCUCUACCGGAAAGUCUGUAAUCAUUUUAAGGGUA [A110U A114G], 0.49.
Turning to GUUAACGGUCAUAGGCCAUGGAAACUAGGAGCACCAUUUCGCUGCCAGUGAAGAAAUGAACAAAGAAAAUCUGGGCCAGGCAGGCAUCAAAAGAAAUAGUCUUGCGCUCGACCAGGAAGUCUGUAAUCAUUUUAAGGGUA [A110G A116G], the self-cleavage came out at 0.06.
Take GUUAACGGUCAUAGGCCAUGGAAACUAGGAGCACCAUUUCGCUGCCAGUGAAGAAAUGAACAAAGAAAAUCUGGGCCAGGCAGGCAUCAAAAGAAAUAGUCUUGCGCUCGACCAGAAAGUCUGUAAUCAUUAUAAGGGUA [A110G U132A]: the self-cleavage worked out at 0.19.
For GUUAACGGUCAUAGGCCAUGGAAACUAGGAGCACCAUUUCGCUGCCAGUGAAGAAAUGAACAAAGAAAAUCUGGGCCAGGCAGGCAUCAAAAGAAAUAGUCUUGCGCUCUACUAGAAAGUCUGUAAUCAUUUUAAGGGUA [A110U C113U], the self-cleavage worked out at 0.02.
Turning to GUUAACGGUCAUAGGCCAUGGAAACUAGGAGCACCAUUUCGCUGCCAGUGAAGAAAUGAACAAAGAAAAUCUGGGCCAGGCAGGCAUCAAAAGAAAUAGUCUUGCGCUCGACCAGAAAGUCUGUAAUCAUUUUAAGGGCA [A110G U139C], the self-cleavage worked out at 0.17.
Turning to GUUAACGGUCAUAGGCCAUGGAAACUAGGAGCACCAUUUCGCUGCCAGUGAAGAAAUGAACAAAGAAAAUCUGGGCCAGGCAGGCAUCAAAAGAAAUAGUCUUGCGCUCGACCAGAAAGUCUGUAAUCAUUUUAAGGGUG [A110G A140G], the self-cleavage was determined as 0.15.
With GUUAACGGUCAUAGGCCAUGGAAACUAGGAGCACCAUUUCGCUGCCAGUGAAGAAAUGAACAAAGAAAAUCUGGGCCAGGCAGGCAUCAAAAGAAAUAGUCUUGCGCUCGACCAGAAAGUCUGUAAUCAUUUUAAGGGUC [A110G A140C], the self-cleavage was determined as 0.14.
With GUUAACGGUCAUAGGCCAUGGAAACUAGGAGCACCAUUUCGCUGCCAGUGAAGAAAUGAACAAAGAAAAUCUGGGCCAGGCAGGCAUCAAAAGAAAUAGUCUUGCGCUCGACCAGAAAGUCUGUCAUCAUUUUAAGGGUA [A110G A125C], the self-cleavage was found to be 0.17.
In the case of GUUAACGGUCAUAGGCCAUGGAAACUAGGAGCACCAUUUCGCUGCCAGUGAAGAAAUGAACAAAGAAAAUCUGGGCCAGGCAGGCAUCAAAAGAAAUAGUCUUGCGCUCCACCAGAAAGUCUGUAAUCAUUAUAAGGGUA [A110C U132A], the self-cleavage was found to be 0.25.
For the variant GUUAACGGUCAUAGGCCAUGGAAACUAGGAGCACCAUUUCGCUGCCAGUGAAGAAAUGAACAAAGAAAAUCUGGGCCAGGCAGGCAUCAAAAGAAAUAGUCUUGCGCUCGACCAGAAAGUCUGUAAUCGUUUUAAGGGUA [A110G A129G], the self-cleavage was 0.11.
As to GUUAACGGUCAUAGGCCAUGGAAACUAGGAGCACCAUUUCGCUGCCAGUGAAGAAAUGAACAAAGAAAAUCUGGGCCAGGCAGGCAUCAAAAGAAAUAGUCUUGCGCUCGACCAGAAAGUCUGUAAUCUUUUUAAGGGUA [A110G A129U], the self-cleavage amounted to 0.08.
For GUUAACGGUCAUAGGCCAUGGAAACUAGGAGCACCAUUUCGCUGCCAGUGAAGAAAUGAACAAAGAAAAUCUGGGCCAGGCAGGCAUCAAAAGAAAUAGUCUUGCGCUCUACCAGAAAGUCUGUAAUCAUUUUAGGGGUA [A110U A135G] the value was 1.63; for GUUAACGGUCAUAGGCCAUGGAAACUAGGAGCACCAUUUCGCUGCCAGUGAAGAAAUGAACAAAGAAAAUCUGGGCCAGGCAGGCAUCAAAAGAAAUAGUCUUGCGCUCGACCAGAAAGUCUGUAAUCAUUUUAAGAGUA [A110G G137A], 0.18; for GUUAACGGUCAUAGGCCAUGGAAACUAGGAGCACCAUUUCGCUGCCAGUGAAGAAAUGAACAAAGAAAAUCUGGGCCAGGCAGGCAUCAAAAGAAAUAGUCUUGCGCUCCACCAGGAAGUCUGUAAUCAUUUUAAGGGUA [A110C A116G], 0.26.
For GUUAACGGUCAUAGGCCAUGGAAACUAGGAGCACCAUUUCGCUGCCAGUGAAGAAAUGAACAAAGAAAAUCUGGGCCAGGCAGGCAUCAAAAGAAAUAGUCUUGCGCUCGACCGGAAAGUCUGUAAUCAUUUUAAGGGUA [A110G A114G], the self-cleavage turned out to be 0.05.
GUUAACGGUCAUAGGCCAUGGAAACUAGGAGCACCAUUUCGCUGCCAGUGAAGAAAUGAACAAAGAAAAUCUGGGCCAGGCAGGCAUCAAAAGAAAUAGUCUUGCGCUCGACCUGAAAGUCUGUAAUCAUUUUAAGGGUA [A110G A114U]: the self-cleavage worked out at 0.03.
Consider GUUAACGGUCAUAGGCCAUGGAAACUAGGAGCACCAUUUCGCUGCCAGUGAAGAAAUGAACAAAGAAAAUCUGGGCCAGGCAGGCAUCAAAAGAAAUAGUCUUGCGCUCGACCCGAAAGUCUGUAAUCAUUUUAAGGGUA [A110G A114C], for which the self-cleavage is 0.01.
For GUUAACGGUCAUAGGCCAUGGAAACUAGGAGCACCAUUUCGCUGCCAGUGAAGAAAUGAACAAAGAAAAUCUGGGCCAGGCAGGCAUCAAAAGAAAUAGUCUUGCGCUUAACCAGAAAGUCUGUAAUCACUUUAAGGGUA [C109U U130C] the value was 0.35; for GUUAACGGUCAUAGGCCAUGGAAACUAGGAGCACCAUUUCGCUGCCAGUGAAGAAAUGAACAAAGAAAAUCUGGGCCAGGCAGGCAUCAAAAGAAAUAGUCUUGCGCUUAACCAGAAAGUCUGUAAUCAAUUUAAGGGUA [C109U U130A], 0.25.
